Molecular target: NnlA (N-nitroglycine lyase) from Variovorax sp. strain JS1663, tag-free after TEV cleavage (Variovorax sp. strain JS1663)
Experiment: SEC

- stoichiometry N: 2
Substance: NnlA (N-nitroglycine lyase) from Variovorax sp. strain JS1663, tag-free after TEV cleavage (enzyme)

— paper doi:10.1101/2022.06.19.496723
